The results in this text go back to US20030032785, “High-affinity oligonucleotide ligands to vascular endothelial growth factor (VEGF)” (published 2003).

For the data set, the target named is VEGF165 (vascular endothelial growth factor, 165 aa form) (Homo sapiens, UniProt P15692-4 P15692-4:27-191). Description: filter. The following applies: tags: gift of N. Ferrara, Genentech; chain copies: 2 stated. The protocol: Nitrocellulose Filter Binding Assays. Oligonucleotides bound to proteins can be effectively separated from the unbound species by filtration through nitrocellulose membrane filters (Yarus, M. and Berg, P. (1970) Anal. Biochem. 35:450-465; Lowary, P. T. and Uhlenbeck, O. C. (1987) Nucleic Acids Res. 15:10483-10493; Tuerk, C. and Gold, L. (1990) supra). Nitrocellulose filters (0.2 μm pore size, Schleicher and Schuell, Keene, N.H.) were secured on a filter manifold and washed with 4-10 ml of buffer; Following incubations of ³²P labeled RNA with serial dilutions of the protein for 10 min at 37° C. in buffer (PBS) containing 0.01% human serum albumin (HSA), the solutions were applied to the filters under gentle vacuum in […] aliquots and washed with 5 ml of PBS. The filters were then dried under an infrared lamp and counted in a scintillation counter.
To this end, certain ligands were synthesized and tested for binding affinity. The binding studies were performed using the protocols described in Example 1.

Sequence of VEGF165 (vascular endothelial growth factor, 165 aa form) (P15692 other isoform, or with tags, fused parts or gaps): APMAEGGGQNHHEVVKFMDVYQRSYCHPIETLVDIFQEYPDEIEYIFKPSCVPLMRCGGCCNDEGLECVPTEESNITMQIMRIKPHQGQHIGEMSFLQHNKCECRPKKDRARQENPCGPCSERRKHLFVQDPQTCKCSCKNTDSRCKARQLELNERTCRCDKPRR

Usually Kd stands for the free concentration of one partner at which half of the binding sites on the other are occupied at equilibrium, for simple one-to-one binding. Turning to ACCCUGAUGGUAGACGCCGGGGUG (ssRNA, 2'-NH2 at all C and U; G9,A12,A14 2:1 mixture 2'-OMe:2'-OH) [NX-203], the affinity, expressed as Kd, was 0.2 nM.
